# Source: doi:10.1101/2020.05.05.080093
# How the values were obtained:
# Test in all cases: ITC
# [1] = biological target: Heimdall_LC_3 TF-Vps4-MIT (Microtubule Interacting and Transport domain of Vps4 of Heimdallarchaeota_LC_3) (Heimdallarchaeota_LC_3)
# [2] = biological target: Loki_GC14_75 TF-Vps4-MIT (Microtubule Interacting and Transport domain of Vps4 of Lokiarchaeum_GC14_75) (Lokiarchaeum_GC14_75)
# [3] = biological target: Odin_LCB_4 TF-Vps4-MIT (Microtubule Interacting and Transport domain of Vps4 of Odinarchaeota_LCB_4) (Odinarchaeota_LCB_4)
Substance,"dH1 (Sequential Binding Sites, first site) [1] [kcal/mol]","dH2 (Sequential Binding Sites, second site) [1] [kcal/mol]",dH [3] [kcal/mol],further results
Heimdall_LC_3 TF-Vps2/24/46 (natural protein),-473,931,–,–
Loki_GC14_75 TF-Vps2/24/46 (natural protein),–,–,–,"dH1 (Sequential Binding Sites, first site) [2]: -121 kcal/mol; dH2 (Sequential Binding Sites, second site) [2]: 422 kcal/mol"
Loki_GC14_75 TF-Vps20/32/60 (natural protein),–,–,–,dH [2]: 1420 kcal/mol
Odin_LCB_4 TF-Vps20/32/60 (natural protein),–,–,331,–

# Continued, in another order:
"dH1 (Sequential Binding Sites, first site) [1] [kcal/mol]","dH2 (Sequential Binding Sites, second site) [1] [kcal/mol]",dH [3] [kcal/mol],Substance,further results
2780,-2310,–,Heimdall_LC_3 TF-Vps20/32/60 (natural protein),–
–,–,392,Odin_LCB_4 Vps2/24/46 (natural protein),–
